# Assay results: US20120270784A1 (THERATECHNOLOGIES, published 2012)
# T1: human GRF receptor (human, UniProt Q02643 23-423)
# T1 sequence (looked up): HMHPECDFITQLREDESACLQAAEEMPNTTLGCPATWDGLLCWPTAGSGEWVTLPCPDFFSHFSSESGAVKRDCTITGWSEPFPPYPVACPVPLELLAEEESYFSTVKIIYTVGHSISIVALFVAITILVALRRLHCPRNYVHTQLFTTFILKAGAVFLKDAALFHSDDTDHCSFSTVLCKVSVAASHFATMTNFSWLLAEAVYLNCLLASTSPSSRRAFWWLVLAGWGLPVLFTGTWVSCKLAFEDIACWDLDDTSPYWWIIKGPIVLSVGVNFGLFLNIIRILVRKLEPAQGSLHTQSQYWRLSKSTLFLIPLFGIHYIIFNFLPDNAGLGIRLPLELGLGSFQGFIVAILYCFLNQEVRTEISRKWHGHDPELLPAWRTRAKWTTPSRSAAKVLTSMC
# Molecular target: T1, human GRF receptor
# Test: cell-based or functional assay
row,Binder,EC50 as assessed by alkaline phosphatase (AP) induction
1,YXDAIFTDSYRKVLAQLKARQDILXR (HELM PEPTIDE1{Y.[dA].D.A.I.F.T.D.S.Y.R.K.V.L.A.Q.L.K.A.R.Q.D.I.L.[Aib].R.[am]}$$$$V2.0; N-terminus assumed; SMILES CC[C@H](C)[C@H](NC(=O)[C@H](C)NC(=O)[C@H](CC(=O)O)NC(=O)[C@@H](C)NC(=O)[C@@H](N)Cc1ccc(O)cc1)C(=O)N[C@@H](Cc1ccccc1)C(=O)N[C@H](C(=O)N[C@@H](CC(=O)O)C(=O)N[C@@H](CO)C(=O)N[C@@H](Cc1ccc(O)cc1)C(=O)N[C@@H](CCCNC(=N)N)C(=O)N[C@@H](CCCCN)C(=O)N[C@H](C(=O)N[C@@H](CC(C)C)C(=O)N[C@@H](C)C(=O)N[C@@H](CCC(N)=O)C(=O)N[C@@H](CC(C)C)C(=O)N[C@@H](CCCCN)C(=O)N[C@@H](C)C(=O)N[C@@H](CCCNC(=N)N)C(=O)N[C@@H](CCC(N)=O)C(=O)N[C@@H](CC(=O)O)C(=O)N[C@H](C(=O)N[C@@H](CC(C)C)C(=O)NC(C)(C)C(=O)N[C@@H](CCCNC(=N)N)C(N)=O)[C@@H](C)CC)C(C)C)[C@@H](C)O) [Y-a-DAIFTDSYRKVLAQLKARQDIL-aib-R-NH2 (SEQ ID NO: 22)],0.72 nM
2,YXDAIFTDSYRKVLAQLXARQDILSX (HELM PEPTIDE1{Y.[dA].D.A.I.F.T.D.S.Y.R.K.V.L.A.Q.L.[Orn].A.R.Q.D.I.L.S.[dR].[am]}$$$$V2.0; N-terminus assumed; SMILES CC[C@H](C)[C@H](NC(=O)[C@H](C)NC(=O)[C@H](CC(=O)O)NC(=O)[C@@H](C)NC(=O)[C@@H](N)Cc1ccc(O)cc1)C(=O)N[C@@H](Cc1ccccc1)C(=O)N[C@H](C(=O)N[C@@H](CC(=O)O)C(=O)N[C@@H](CO)C(=O)N[C@@H](Cc1ccc(O)cc1)C(=O)N[C@@H](CCCNC(=N)N)C(=O)N[C@@H](CCCCN)C(=O)N[C@H](C(=O)N[C@@H](CC(C)C)C(=O)N[C@@H](C)C(=O)N[C@@H](CCC(N)=O)C(=O)N[C@@H](CC(C)C)C(=O)N[C@@H](CCCN)C(=O)N[C@@H](C)C(=O)N[C@@H](CCCNC(=N)N)C(=O)N[C@@H](CCC(N)=O)C(=O)N[C@@H](CC(=O)O)C(=O)N[C@H](C(=O)N[C@@H](CC(C)C)C(=O)N[C@@H](CO)C(=O)N[C@H](CCCNC(=N)N)C(N)=O)[C@@H](C)CC)C(C)C)[C@@H](C)O) [Y-a-D-A-I-F-T-D-S-Y-R-K-V-L-A-Q-L-O-A-R-Q-D-I-L-S-r-NH2 (SEQ ID NO: 23)],1.14 nM
3,YADAIFTDSYRKVLAQLXARQDILSX (HELM PEPTIDE1{[CC/C=C/CC(=O)[*:2]].Y.A.D.A.I.F.T.D.S.Y.R.K.V.L.A.Q.L.[Orn].A.R.Q.D.I.L.S.[dR].[am]}$$$$V2.0; SMILES CC/C=C/CC(=O)N[C@@H](Cc1ccc(O)cc1)C(=O)N[C@@H](C)C(=O)N[C@@H](CC(=O)O)C(=O)N[C@@H](C)C(=O)N[C@H](C(=O)N[C@@H](Cc1ccccc1)C(=O)N[C@H](C(=O)N[C@@H](CC(=O)O)C(=O)N[C@@H](CO)C(=O)N[C@@H](Cc1ccc(O)cc1)C(=O)N[C@@H](CCCNC(=N)N)C(=O)N[C@@H](CCCCN)C(=O)N[C@H](C(=O)N[C@@H](CC(C)C)C(=O)N[C@@H](C)C(=O)N[C@@H](CCC(N)=O)C(=O)N[C@@H](CC(C)C)C(=O)N[C@@H](CCCN)C(=O)N[C@@H](C)C(=O)N[C@@H](CCCNC(=N)N)C(=O)N[C@@H](CCC(N)=O)C(=O)N[C@@H](CC(=O)O)C(=O)N[C@H](C(=O)N[C@@H](CC(C)C)C(=O)N[C@@H](CO)C(=O)N[C@H](CCCNC(=N)N)C(N)=O)[C@@H](C)CC)C(C)C)[C@@H](C)O)[C@@H](C)CC) [Trans-3-hexenoyl-Y-A-D-A-I-F-T-D-S-Y-R-K-V-L-A-Q-L-O-A-R-Q-D-I-L-S-r-NH2 (SEQ ID NO: 24)],1.18 nM
